EC50 data for one molecule are collected here from doi:10.1101/2020.10.22.351056 (bioRxiv, 2020).

The target in this assay is Fc-conjugated human angiotensin converting enzyme 2 (ACE2-Fc) (human, UniProt Q9BYF1). Description: ELISA. On the technique in general: An ELISA detects its analyte on a solid surface through an enzyme-linked reagent.
Sequence of Fc-conjugated human angiotensin converting enzyme 2 (ACE2-Fc) (Q9BYF1 18-740): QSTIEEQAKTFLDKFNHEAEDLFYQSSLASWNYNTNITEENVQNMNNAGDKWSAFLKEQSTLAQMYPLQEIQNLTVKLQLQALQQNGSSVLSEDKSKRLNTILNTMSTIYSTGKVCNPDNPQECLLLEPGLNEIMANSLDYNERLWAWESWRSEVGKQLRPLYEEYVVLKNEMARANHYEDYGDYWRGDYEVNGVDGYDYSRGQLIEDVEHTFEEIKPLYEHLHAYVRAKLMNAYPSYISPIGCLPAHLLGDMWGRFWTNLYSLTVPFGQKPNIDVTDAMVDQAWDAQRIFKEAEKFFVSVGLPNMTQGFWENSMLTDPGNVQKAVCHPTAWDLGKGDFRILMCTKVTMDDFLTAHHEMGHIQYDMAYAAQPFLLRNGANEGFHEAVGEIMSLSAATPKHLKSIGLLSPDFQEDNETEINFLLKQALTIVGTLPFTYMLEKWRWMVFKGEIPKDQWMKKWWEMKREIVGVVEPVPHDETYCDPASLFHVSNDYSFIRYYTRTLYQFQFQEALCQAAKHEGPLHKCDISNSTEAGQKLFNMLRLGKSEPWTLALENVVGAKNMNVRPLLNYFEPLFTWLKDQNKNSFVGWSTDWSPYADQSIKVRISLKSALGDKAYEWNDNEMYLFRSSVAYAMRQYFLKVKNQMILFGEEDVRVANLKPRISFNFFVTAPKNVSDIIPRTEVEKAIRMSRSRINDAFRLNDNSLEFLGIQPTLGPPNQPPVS

B1: SARS-CoV spike protein S1+S2, His-tagged (domain or fragment)
chain: not shown
For orientation: EC50 means the concentration giving half of the maximal effect. B1 showed an EC50 of 13.9 nM.
